Source: the supplement of paper PMC5998384

Test system: HeLa Kyoto
Assay: solubility change mitosis vs G1/S (difference of NP-40 vs SDS log2 ratios) (log2 ratio difference); higher = more soluble in mitosis
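Note: synchronized HeLa Kyoto cells (double thymidine block for G1/S, nocodazole release for mitosis), protein amounts in NP-40 versus SDS lysates quantified by mass spectrometry, three biological replicates.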

Point of comparison: OLR1, “solubility change mitosis (log2)” value 0.51. Against it:
- RPL31 — higher, 0.763
- MRPL48 — lower, -0.0228
- MRPS7 — lower, -0.0353
- MTOR — lower, -0.154
- MRPS16 — lower, -0.0244
- RPL6 — higher, 0.908
- PHLDA3 — lower, 0.0241
- RPL36 — higher, 0.849
- MRPS15 — lower, 0.176
- POLR2A — lower, 0.228
- TCEA1 — lower, -0.0112
- MTMR1 — lower, 0.0778
- RPS6 — higher, 0.803
- DDA1 — lower, 0.3
- KPNA2 — lower, 0.136
- RPL27A — higher, 1.02
- POLR2K — lower, 0.187
- POLR2C — lower, 0.102
- RPS11 — within 0.2 log units, 0.597
- RSL1D1 — higher, 1.5
- ARPC4 — lower, -0.115
- ACADSB — lower, -0.0159
- KIAA0907 — lower, 0.046
- RPL34 — higher, 0.894
- RPL38 — within 0.2 log units, 0.638
